Experiments:
Experiment in all cases: direct ELISA on coated protein, IgG1
hCD4 = molecular target: T1, hCD4 (human, UniProt P01730)
T1 construct: purified recombinant protein; member of the panel m9

hCMET-Fc = molecular target: T2, hCMET-Fc (The natural ectodomain is cleaved by furin after residue 307 into disulfide-linked alpha and beta chains. It is given here as one continuous stretch.)
T2 construct: member of the panel m9
T2 chain: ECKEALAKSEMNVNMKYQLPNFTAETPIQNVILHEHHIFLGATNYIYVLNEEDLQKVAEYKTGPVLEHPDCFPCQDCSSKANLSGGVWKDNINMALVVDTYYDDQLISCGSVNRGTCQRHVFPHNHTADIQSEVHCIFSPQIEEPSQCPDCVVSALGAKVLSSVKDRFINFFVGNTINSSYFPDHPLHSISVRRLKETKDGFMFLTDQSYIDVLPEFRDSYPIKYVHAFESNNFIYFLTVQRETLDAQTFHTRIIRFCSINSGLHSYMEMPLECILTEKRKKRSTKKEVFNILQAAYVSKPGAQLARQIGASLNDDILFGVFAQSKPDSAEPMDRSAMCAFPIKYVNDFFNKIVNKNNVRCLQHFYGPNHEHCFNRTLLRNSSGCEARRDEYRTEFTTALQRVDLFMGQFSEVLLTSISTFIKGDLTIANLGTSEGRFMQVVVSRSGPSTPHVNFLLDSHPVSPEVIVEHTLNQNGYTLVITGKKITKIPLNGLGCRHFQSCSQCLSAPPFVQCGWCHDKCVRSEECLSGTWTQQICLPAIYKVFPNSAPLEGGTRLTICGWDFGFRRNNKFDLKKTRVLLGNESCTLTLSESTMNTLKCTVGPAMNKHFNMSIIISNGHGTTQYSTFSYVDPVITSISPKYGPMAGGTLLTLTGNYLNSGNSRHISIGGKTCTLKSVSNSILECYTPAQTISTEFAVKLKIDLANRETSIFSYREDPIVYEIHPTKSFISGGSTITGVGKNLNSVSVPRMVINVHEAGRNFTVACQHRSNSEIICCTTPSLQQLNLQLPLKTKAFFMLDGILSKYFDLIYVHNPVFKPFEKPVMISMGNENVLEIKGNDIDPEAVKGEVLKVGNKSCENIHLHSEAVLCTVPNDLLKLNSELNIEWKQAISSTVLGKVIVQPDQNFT

hVCAM-Fc = molecular target: T3, hVCAM-Fc
T3 construct: member of the panel m9
T3 chain: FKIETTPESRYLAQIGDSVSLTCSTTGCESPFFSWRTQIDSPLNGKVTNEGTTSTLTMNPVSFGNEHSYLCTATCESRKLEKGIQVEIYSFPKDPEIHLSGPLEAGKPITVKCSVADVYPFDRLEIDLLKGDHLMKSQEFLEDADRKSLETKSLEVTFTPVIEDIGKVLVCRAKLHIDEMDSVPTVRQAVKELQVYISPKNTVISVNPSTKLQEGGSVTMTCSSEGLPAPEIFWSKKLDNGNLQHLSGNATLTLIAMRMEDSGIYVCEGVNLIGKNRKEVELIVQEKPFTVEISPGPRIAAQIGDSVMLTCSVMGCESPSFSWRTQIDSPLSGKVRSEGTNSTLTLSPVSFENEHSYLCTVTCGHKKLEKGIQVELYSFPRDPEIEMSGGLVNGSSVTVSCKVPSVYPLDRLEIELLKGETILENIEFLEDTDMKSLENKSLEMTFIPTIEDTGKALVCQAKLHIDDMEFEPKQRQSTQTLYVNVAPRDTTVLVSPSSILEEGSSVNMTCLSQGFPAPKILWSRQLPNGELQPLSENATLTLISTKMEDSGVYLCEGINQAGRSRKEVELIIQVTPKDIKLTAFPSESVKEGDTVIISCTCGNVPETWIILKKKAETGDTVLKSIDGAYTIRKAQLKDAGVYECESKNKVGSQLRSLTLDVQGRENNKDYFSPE

hICAM-1-Fc = molecular target: T4, hICAM-1-Fc (human, UniProt P05362)
T4 construct: Fc fusion; member of the panel m9
T4 sequence (P05362 28-480 limits assumed): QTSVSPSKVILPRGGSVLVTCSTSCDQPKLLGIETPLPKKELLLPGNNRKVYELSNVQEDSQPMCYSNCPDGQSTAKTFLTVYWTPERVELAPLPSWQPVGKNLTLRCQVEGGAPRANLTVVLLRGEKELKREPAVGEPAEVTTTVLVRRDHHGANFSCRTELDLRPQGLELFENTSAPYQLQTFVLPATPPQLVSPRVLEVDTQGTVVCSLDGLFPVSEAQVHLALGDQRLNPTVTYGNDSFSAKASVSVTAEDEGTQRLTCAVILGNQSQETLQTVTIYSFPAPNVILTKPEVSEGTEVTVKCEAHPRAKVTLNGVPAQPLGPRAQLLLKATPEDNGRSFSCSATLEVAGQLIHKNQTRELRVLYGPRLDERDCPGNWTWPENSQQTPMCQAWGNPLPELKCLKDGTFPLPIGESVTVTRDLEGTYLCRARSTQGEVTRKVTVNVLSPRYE

hLTBR-Fc = molecular target: T5, hLTBR-Fc (human, UniProt P36941)
T5 construct: Fc fusion; member of the panel m9
T5 sequence (P36941 28-227 limits assumed): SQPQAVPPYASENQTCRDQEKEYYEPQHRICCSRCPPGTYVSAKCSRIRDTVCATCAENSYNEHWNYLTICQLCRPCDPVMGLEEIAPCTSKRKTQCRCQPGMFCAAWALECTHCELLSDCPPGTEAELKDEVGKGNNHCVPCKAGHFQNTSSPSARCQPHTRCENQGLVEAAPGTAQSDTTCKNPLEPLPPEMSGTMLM

hBAFFR-Fc = molecular target: T6, hBAFFR-Fc (human, UniProt Q96RJ3)
T6 construct: Fc fusion; member of the panel m9
T6 sequence (Q96RJ3 7-71 limits assumed): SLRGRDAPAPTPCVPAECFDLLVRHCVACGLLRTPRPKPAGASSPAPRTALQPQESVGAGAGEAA

hVCAM-1 = molecular target: T7, hVCAM-1 (human, UniProt P19320)
T7 construct: purified recombinant protein; member of the panel m9
T7 sequence (looked up): T3 chain

hOX40-Fc = molecular target: T8, hOX40-Fc
T8 construct: member of the panel m9
T8 chain: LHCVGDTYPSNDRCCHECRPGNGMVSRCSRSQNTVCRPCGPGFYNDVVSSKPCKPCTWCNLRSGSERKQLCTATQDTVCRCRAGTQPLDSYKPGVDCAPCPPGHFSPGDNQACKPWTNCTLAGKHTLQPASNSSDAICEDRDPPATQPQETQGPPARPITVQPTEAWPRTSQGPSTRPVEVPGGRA

hDR6-Fc = molecular target: T9, hDR6-Fc (human, UniProt O75509)
T9 construct: Fc fusion; member of the panel m9
T9 sequence (looked up): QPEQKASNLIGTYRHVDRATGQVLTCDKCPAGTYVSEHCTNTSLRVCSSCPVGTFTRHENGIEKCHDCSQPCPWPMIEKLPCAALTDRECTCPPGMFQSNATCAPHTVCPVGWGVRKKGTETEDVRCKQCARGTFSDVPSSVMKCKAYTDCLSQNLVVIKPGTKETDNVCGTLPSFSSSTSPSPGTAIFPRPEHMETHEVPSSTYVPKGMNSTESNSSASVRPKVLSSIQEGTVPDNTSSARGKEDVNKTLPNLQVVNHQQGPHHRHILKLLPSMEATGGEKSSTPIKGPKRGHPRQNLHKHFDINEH

hTWEAK-Fc = molecular target: T10, hTWEAK-Fc (human, UniProt O43508)
T10 construct: Fc fusion; member of the panel m9
T10 sequence (looked up): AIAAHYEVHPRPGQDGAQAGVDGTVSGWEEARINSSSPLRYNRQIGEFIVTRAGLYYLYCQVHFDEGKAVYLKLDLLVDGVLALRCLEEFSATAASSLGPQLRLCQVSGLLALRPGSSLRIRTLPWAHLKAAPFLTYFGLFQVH

- binding result (hCD4): no binding (tested: 1 µg/ml)
- binding result (hCMET-Fc): no binding (tested: 1 µg/ml)
- binding result (hVCAM-Fc): no binding (tested: 1 µg/ml)
- binding result (hICAM-1-Fc): no binding (tested: 1 µg/ml)
- binding result (hLTBR-Fc): no binding (tested: 1 µg/ml)
- binding result (hBAFFR-Fc): no binding (tested: 1 µg/ml)
- binding result (hVCAM-1): no binding (tested: 1 µg/ml)
- binding result (hOX40-Fc): no binding (tested: 1 µg/ml)
- binding result (hDR6-Fc): no binding (tested: 1 µg/ml)
- binding result (hTWEAK-Fc): no binding (tested: 1 µg/ml)
B1: MH5, human IgG1 (antibody, V domains shown)
VH: QVQLVQSGAEVKKPGASVKVSCKASGYTFTDYYMNWVRQAPGQGLEWMGRIYPGSGNTYYAQKFQGRVTMTRDTSTSTVYMELSSLRSEDTAVYYCARGVYYYDYWGQGTLVTVSS
VL: DIQMTQSPSSLSASVGDRVTITCRASQGIRTNLAWFQQKPGKAPKSLIYSASSLQSGVPSRFSGSGSGTDFTLTISSLQPEDFATYYCQQYANYPRTFGGGTKVEIK
notes: IgG1; also called C-KIT-MH5; C-KIT-MHS

From patent US20200283521A1 (GRANULAR THERAPEUTICS, published 2020)
